Data published in article PMC8510580, “HspB8 prevents aberrant phase transitions of FUS by chaperoning its folded RNA-binding domain” (eLife, 2021).
Positions count from the first letter of the chain named. Names and notes keep the numbering of the source.

B1: FUS-G156E-GFP (FUSm) (natural protein, human, UniProt P35637 1-526, looked up)
chain: MASNDYTQQATQSYGAYPTQPGQGYSQQSSQPYGQQSYSGYSQSTDTSGYGQSSYSSYGQSQNTGYGTQSTPQGYGSTGGYGSSQSSQSSYGQQSSYPGYGQQPAPSSTSGSYGSSSQSSSYGQPQSGSYSQQPSYGGQQQSYGQQQSYNPPQGYEQQNQYNSSSGGGGGGGGGGNYGQDQSSMSSGGGSGGGYGNQDQSGGGGSGGYGQQDRGGRGRGGSGGGGGGGGGGYNRSSGGYEPRGRGGGRGGRGGMGGSDRGGFNKFGGPRDQGSRHDSEQDNSDNNTIFVQGLGENVTIESVADYFKQIGIIKTNKKTGQPMINLYTDRETGKLKGEATVSFDDPPSAKAAIDWFDGKEFSGNPIKVSFATRRADFNRGGGNGRGGRGRGGPMGRGGYGGGGSGGGGRGGFPSGGGGGGGQQRAGDWKCPNPTCENMNFSWRNECNQCKAPKPDGPGGGPGGSHMGGNYGDDRRGGRGGYDRGGYRGRGGDRGGFRGGRGGGDRGGFGPGKMDSRGEHRQDRRERPY
notes: FUS (fused in sarcoma), human, UniProt P35637, with G156E; also called FUSm-GFP; source: Sf9 cells, purified as described (Patel et al., 2015); not shown: 5 AA tag used for purification, N-terminal, kept; GFP, C-terminal, kept
B2: HspB8-WT (natural protein, UniProt Q9UJY1 1-196, looked up)
chain: MADGQMPFSCHYPSRLRRDPFRDSPLSSRLLDDGFGMDPFPDDLTASWPDWALPRLSSAWPGTLRSGMVPRGPTATARFGVPAEGRTPPPFPGEPWKVCVNVHSFKPEELMVKTKDGYVEVSGKHEEKQQEGGIVSKNFTKKIQLPAEVDPVTVFASLSPEGLLIIEAPQVPPYSTFGESSFNNELPQDSQEVTCT
notes: small heat shock protein HspB8; IDR printed as AA1-71 and alpha-crystallin domain as AA72-196; The article's keywords name Human as organism; also called small heat shock protein HspB8; source: E. coli BL21 Codon RIL, purified (GST, PreScission cleavage, reverse GST, ResourceQ); not shown: GST, N-terminal, cleaved
B3: HspB8-K141E (natural protein, UniProt Q9UJY1 1-196, looked up)
chain: B2 chain with K141E
notes: small heat shock protein HspB8 with the Charcot-Marie Tooth disease-associated mutation K141E in the alpha-crystallin domain; Same construct as m2 with K141E; also called K141E mutant; HspB8-K141E mutant; source: E. coli BL21 Codon RIL, purified (GST, PreScission cleavage, reverse GST, ResourceQ); not shown: GST, N-terminal, cleaved

Columns and labels:
Taf-15 = target: T1, Taf-15 (UniProt Q92804 1-592); assay: MST; 33 nM FUSm, partner titrated; non-phase separating conditions (500 mM KCl); conditions: both partners purified
T1 construct: stress granule protein Taf-15; no methods for its production; also called stress granule protein Taf-15
T1 sequence (Q92804 whole entry): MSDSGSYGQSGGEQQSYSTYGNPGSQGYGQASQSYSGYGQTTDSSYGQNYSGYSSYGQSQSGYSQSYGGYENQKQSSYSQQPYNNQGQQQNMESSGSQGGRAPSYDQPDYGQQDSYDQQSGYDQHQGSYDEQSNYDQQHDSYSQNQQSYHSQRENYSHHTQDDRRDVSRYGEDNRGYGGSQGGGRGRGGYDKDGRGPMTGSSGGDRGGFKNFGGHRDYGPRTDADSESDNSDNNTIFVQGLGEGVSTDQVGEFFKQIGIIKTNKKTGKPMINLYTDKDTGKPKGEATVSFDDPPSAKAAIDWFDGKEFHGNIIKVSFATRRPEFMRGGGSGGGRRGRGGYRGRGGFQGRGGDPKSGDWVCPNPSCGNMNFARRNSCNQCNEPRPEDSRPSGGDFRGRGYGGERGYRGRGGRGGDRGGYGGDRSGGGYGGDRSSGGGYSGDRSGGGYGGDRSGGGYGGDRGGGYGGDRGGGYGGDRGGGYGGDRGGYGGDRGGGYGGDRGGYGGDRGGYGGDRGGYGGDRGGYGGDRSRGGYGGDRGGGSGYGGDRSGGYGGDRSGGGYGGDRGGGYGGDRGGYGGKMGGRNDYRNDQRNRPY

[1] = target: the molecule itself; assay: cross-linking; quantitative XL-MS of FUSm alone: low salt (75 mM KCl, condensates) against high salt (500 mM KCl, no phase separation); 1.9 mM H12/D12 DSS, 30 min, 37°C
FUS-G156E-GFP (FUSm) = target: B1; assay: cross-linking; XL-MS of FUSm (or FUSm_K9) mixed with the partner under condensate-inducing low salt (75 mM): low-salt mixture or dense phase separated by centrifugation; H12/D12 DSS, 30 min, 37°C; also 3 hr after formation and with an RNA oligonucleotide; conditions: both partners purified

| Kd (Taf-15) | binding result (FUS-G156E-GFP (FUSm)) | Binder | binding result [1] |
| --- | --- | --- | --- |
| 260 nM |  | B1 | binds |
|  | binds | B2 |  |
|  | binds | B3 |  |
